The record followed here is article PMC3228521 (Molecular bioSystems, 2011).

Positions count from the first letter of the chain named. In names and notes the source's numbering stands. Where two headings read alike, the source gives them in different places.

First the molecules themselves.
T1: C-term scPolη (a.a. 515~632) HH568,572AA, GST fusion (S. cerevisiae, UniProt Q04049 515-632, HH568,572AA | HH568,572AA)
T1 sequence (looked up): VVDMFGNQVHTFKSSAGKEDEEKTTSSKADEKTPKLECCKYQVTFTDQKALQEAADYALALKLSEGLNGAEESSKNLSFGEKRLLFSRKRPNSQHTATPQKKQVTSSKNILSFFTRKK

T2: C-term scPolη (a.a. 515~632) CC552,553AA, GST fusion (S. cerevisiae, UniProt Q04049 515-632, CC552,553AA | CC552,553AA)
T2 sequence (looked up): T1 sequence (looked up) with C38A, C39A, A54H, A58H

T3: UBZ-CN (a.a. 515~615) of S. cerevisiae Polη, GST fusion (S. cerevisiae, UniProt Q04049 515-615)
T3 sequence (looked up): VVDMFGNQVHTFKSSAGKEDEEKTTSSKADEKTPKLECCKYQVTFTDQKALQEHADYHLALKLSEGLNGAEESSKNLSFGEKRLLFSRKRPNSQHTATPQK

B1: UBZ-N (a.a. 515~580) of S. cerevisiae Polη, GST fusion (domain or fragment, UniProt Q04049 515-580, looked up)
chain: VVDMFGNQVHTFKSSAGKEDEEKTTSSKADEKTPKLECCKYQVTFTDQKALQEHADYHLALKLSEG
B2: ubiquitin (S. cerevisiae) (natural protein)
chain: not shown
B3: UBZ-C (a.a. 545~608) of S. cerevisiae Polη, GST fusion (domain or fragment, UniProt Q04049 545-608, looked up)
chain: EKTPKLECCKYQVTFTDQKALQEHADYHLALKLSEGLNGAEESSKNLSFGEKRLLFSRKRPNSQ
B4: minimal S. cerevisiae Polη UBZ domain (a.a. 545–580) with N-terminal GST tag, wild type (domain or fragment, UniProt Q04049 545-580, looked up)
chain: EKTPKLECCKYQVTFTDQKALQEHADYHLALKLSEG
B5: scPolη UBZ domain (a.a. 545–580) A574F, GST fusion (domain or fragment, S. cerevisiae, UniProt Q04049 545-580, looked up)
chain: B4 chain with A30F
B6: scPolη UBZ domain (a.a. 545–580) HH568,572AA, GST fusion (domain or fragment, S. cerevisiae, UniProt Q04049 545-580, looked up)
chain: B4 chain with H24A, H28A
B7: scPolη UBZ domain (a.a. 545–580) A574P, GST fusion (domain or fragment, S. cerevisiae, UniProt Q04049 545-580, looked up)
chain: B4 chain with A30P
B8: scPolη UBZ domain (a.a. 545–580) D570A, GST fusion (domain or fragment, S. cerevisiae, UniProt Q04049 545-580, looked up)
chain: B4 chain with D26A
B9: scPolη UBZ domain (a.a. 545–580) A569P, GST fusion (domain or fragment, S. cerevisiae, UniProt Q04049 545-580, looked up)
chain: B4 chain with A25P
B10: scPolη UBZ domain (a.a. 545–580) CC552,553AA, GST fusion (domain or fragment, S. cerevisiae, UniProt Q04049 545-580, looked up)
chain: B4 chain with C8A, C9A
B11: scPolη UBZ domain (a.a. 545–580) Q566P, GST fusion (domain or fragment, S. cerevisiae, UniProt Q04049 545-580, looked up)
chain: B4 chain with Q22P

What all share (test): SPR
Assay [1] addresses B2.
Assay [2] deals with T1, C-term scPolη (a.a. 515~632) ….
Assay [3] addresses T2, C-term scPolη (a.a. 515~632) ….
Assay [4] deals with T3, UBZ-CN (a.a. 515~615) of S. cerevisiae ….
In assay [5] the target is B2. This is another data set of the same source.

On to B1, for which, in assay [1], the Kd (usually the equilibrium constant for the complex coming apart) was found to be 18.2 ± 2.2 µM.
With B2, the Kd in assay [2] worked out at 0.59 ± 0.14 µM; in assay [3] it was 0.3 ± 0.1 µM; in assay [4], 11.1 ± 1.8 µM.
Regarding B3, in assay [1], binding was characterised by a dissociation constant (Kd) of 15.8 ± 3.7 µM.
B4: the Kd in assay [5] was 14.6 ± 2.5 µM.
The same measure, in the same setting: the result for B5 reads 38.6 ± 8.6 µM; that for B6, 22.2 ± 4.8 µM.
Regarding B7, the dissociation constant (Kd) in assay [5] was 55.3 ± 5.5 µM.
In assay [5], B8 yielded an equilibrium dissociation constant (Kd) of 23.6 ± 2.4 µM.
Molecule B9 came in with an equilibrium dissociation constant (Kd) in assay [5] of 43.1 ± 10.2 µM. Against the preceding molecule, the Kd is about 1.8-fold higher.
For the molecule B10, binding in assay [5] was characterised by a dissociation constant (Kd) of 22.3 ± 4.1 µM.
Still for that read-out and setting: the figure for B11 is 48.4 ± 7.2 µM.
